Measured values as given in article PMC2730992 (Molecular and biochemical parasitology, 2009).

Assays:
[1] = biological target: T. cruzi S-adenosylmethionine decarboxylase (AdoMetDC), His6-tagged (Trypanosoma cruzi)
[2] = biological target: T. cruzi S-adenosylmethionine decarboxylase (AdoMetDC), His6-tagged (Trypanosoma cruzi); remark: listed apart in the source
[3] = biological target: T. brucei S-adenosylmethionine decarboxylase (AdoMetDC), His6-tagged (Trypanosoma brucei)
[4] = biological target: T1, TcAdoMetDC (T. cruzi AdoMetDC homodimer) (Trypanosoma cruzi, UniProt O76240); assay: activation of AdoMet decarboxylation, […]CO2 trapping; assay type: biochemical; conditions: 5 mM putrescine; allosteric activator; pH 8.0, 37 °C
T1 sequence (O76240 1-85): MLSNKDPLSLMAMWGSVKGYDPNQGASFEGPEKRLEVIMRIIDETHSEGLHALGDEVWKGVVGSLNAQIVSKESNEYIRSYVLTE
T1 sequence (O76240 86-370): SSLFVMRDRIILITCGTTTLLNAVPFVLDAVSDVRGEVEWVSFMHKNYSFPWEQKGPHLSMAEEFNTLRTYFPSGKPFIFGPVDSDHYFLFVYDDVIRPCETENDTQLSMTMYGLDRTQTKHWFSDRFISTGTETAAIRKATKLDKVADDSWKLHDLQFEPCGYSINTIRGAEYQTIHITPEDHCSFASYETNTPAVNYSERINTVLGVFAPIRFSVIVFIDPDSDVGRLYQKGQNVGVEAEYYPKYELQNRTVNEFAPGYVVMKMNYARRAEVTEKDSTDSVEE

For “T. cruzi prozyme, untagged (natural protein)”, the kcat/Km of AdoMet decarboxylation, co-purified heterodimer, 5 mM putrescine [1] was 5100 M⁻¹ s⁻¹ and the kcat/Km of AdoMet decarboxylation, co-purified heterodimer, no putrescine [1] was 1030 M⁻¹ s⁻¹.

“T. brucei prozyme, His6-tagged (natural protein)” showed an increase of T. cruzi AdoMetDC activity by T. brucei prozyme, no putrescine [2] of 70 fold.

“T. cruzi prozyme, His6-tagged (natural protein)” gave a stimulation of T. brucei AdoMetDC activity by T. cruzi prozyme, no putrescine [3] of 60 fold.

With `NCCCCN` [putrescine] the “activation of AdoMet decarboxylation, 14CO2 trapping” value [4] was “the T. cruzi AdoMetDC enzyme was stimulated by putrescine”.
